Data reported in IntAct's records for PubMed 36931259.

B1: 14-3-3 protein sigma (Homo sapiens), P31947 (parent)
chain: MERASLIQKAKLAEQAERYEDMAAFMKGAVEKGEELSCEERNLLSVAYKNVVGGQRAAWRVLSSIEQKSNEEGSEEKGPEVREYREKVETELQGVCDTVLGLLDSHLIKEAGDAESRVFYLKMKGDYYRYLAEVATGDDKKRIIDSARSAYQEAMDISKKEMPPTNPIRLGLALNFSVFHYEIANSPEEAISLAKTTFDEAMADLHTLSEDSYKDSTLIMQLLRDNLTLWTADNAGEEGGEAPQEPQS

Variants of: B1
Conditions: with pak5_human PAK5, Q9P286

effect of a mutation on the interaction	Variant
decreasing interaction strength	K49E;R56E;V178D

Variants of: B1
Conditions: with cdk16_human CDK16, Q00536
Chain of cdk16_human CDK16, Q00536 (Q00536 whole entry): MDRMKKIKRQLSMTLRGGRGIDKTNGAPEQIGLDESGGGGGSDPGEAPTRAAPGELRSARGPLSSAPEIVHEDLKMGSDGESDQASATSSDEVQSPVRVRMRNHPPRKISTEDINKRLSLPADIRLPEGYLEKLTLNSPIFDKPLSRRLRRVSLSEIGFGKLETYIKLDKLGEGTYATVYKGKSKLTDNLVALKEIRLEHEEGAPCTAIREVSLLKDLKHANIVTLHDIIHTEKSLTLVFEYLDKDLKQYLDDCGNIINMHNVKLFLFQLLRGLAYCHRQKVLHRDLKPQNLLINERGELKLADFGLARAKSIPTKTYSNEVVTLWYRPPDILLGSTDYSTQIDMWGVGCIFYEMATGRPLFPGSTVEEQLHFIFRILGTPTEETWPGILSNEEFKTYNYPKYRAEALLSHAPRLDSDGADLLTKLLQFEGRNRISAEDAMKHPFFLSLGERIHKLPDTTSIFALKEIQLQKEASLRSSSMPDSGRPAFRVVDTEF

effect of a mutation on the interaction	Variant
decreasing interaction strength	K49E;R56E;V178D

Variants of: B1
Conditions: with sik1_human SIK1, P57059

effect of a mutation on the interaction	Variant
decreasing interaction strength	K49E;R56E;V178D

Variants of: B1
Conditions: with mark3_human MARK3, P27448

effect of a mutation on the interaction	Variant
decreasing interaction strength	K49E;R56E;V178D

Variants of: B1
Conditions: with plk1_human PLK1, P53350

effect of a mutation on the interaction	Variant
decreasing interaction strength	K49E;R56E;V178D

Variants of: B1
Conditions: with cd28_human CD28, P10747

effect of a mutation on the interaction	Variant
decreasing interaction strength	K49E;R56E;V178D

Variants of: B1
Conditions: with srs10_human SRSF10, O75494

effect of a mutation on the interaction	Variant
decreasing interaction strength	K49E;R56E;V178D

Variants of: B1
Conditions: with pabp1_human PABPC1, P11940

effect of a mutation on the interaction	Variant
decreasing interaction strength	K49E;R56E;V178D

Variants of: B1
Conditions: with foxo3_human FOXO3, O43524
Chain of foxo3_human FOXO3, O43524 (O43524 whole entry): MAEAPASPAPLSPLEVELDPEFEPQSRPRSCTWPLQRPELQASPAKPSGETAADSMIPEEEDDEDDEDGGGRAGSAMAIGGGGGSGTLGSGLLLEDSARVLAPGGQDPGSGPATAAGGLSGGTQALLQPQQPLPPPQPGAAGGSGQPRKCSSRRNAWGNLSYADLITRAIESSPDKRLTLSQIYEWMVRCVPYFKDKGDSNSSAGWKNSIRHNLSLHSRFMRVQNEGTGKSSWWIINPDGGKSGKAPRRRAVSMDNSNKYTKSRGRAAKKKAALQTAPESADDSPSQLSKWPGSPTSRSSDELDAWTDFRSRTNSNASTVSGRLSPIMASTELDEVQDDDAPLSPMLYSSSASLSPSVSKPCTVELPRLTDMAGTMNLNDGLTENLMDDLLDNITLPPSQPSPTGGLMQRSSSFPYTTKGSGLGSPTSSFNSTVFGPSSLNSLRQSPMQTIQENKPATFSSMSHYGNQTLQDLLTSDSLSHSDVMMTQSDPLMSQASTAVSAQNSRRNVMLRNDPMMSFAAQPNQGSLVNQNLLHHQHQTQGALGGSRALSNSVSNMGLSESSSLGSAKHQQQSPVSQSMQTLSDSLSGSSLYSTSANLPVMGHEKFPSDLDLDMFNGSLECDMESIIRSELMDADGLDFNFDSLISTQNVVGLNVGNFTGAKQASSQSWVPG

effect of a mutation on the interaction	Variant
decreasing interaction strength	K49E;R56E;V178D

Variants of: B1
Conditions: with hdac4_human HDAC4, P56524

effect of a mutation on the interaction	Variant
decreasing interaction strength	K49E;R56E;V178D

Variants of: B1
Conditions: with wdr62_human WDR62, O43379

effect of a mutation on the interaction	Variant
decreasing interaction strength	K49E;R56E;V178D

Variants of: B1
Conditions: with pml_human PML

effect of a mutation on the interaction	Variant
decreasing interaction strength	K49E;R56E;V178D

Variants of: B1
Conditions: with wwp2_human WWP2, O00308

effect of a mutation on the interaction	Variant
decreasing interaction strength	K49E;R56E;V178D

Variants of: B1
Conditions: with trim9_human TRIM9, Q9C026

effect of a mutation on the interaction	Variant
decreasing interaction strength	K49E;R56E;V178D

Variants of: B1
Conditions: with kctd8_human KCTD8, Q6ZWB6

effect of a mutation on the interaction	Variant
decreasing interaction strength	K49E;R56E;V178D

Variants of: B1
Conditions: with nedd4_human NEDD4, P46934

effect of a mutation on the interaction	Variant
decreasing interaction strength	K49E;R56E;V178D

Variants of: B1
Conditions: with dtl_human DTL

effect of a mutation on the interaction	Variant
decreasing interaction strength	K49E;R56E;V178D

Variants of: B1
Conditions: with cbl_human CBL

effect of a mutation on the interaction	Variant
decreasing interaction strength	K49E;R56E;V178D

Variants of: B1
Conditions: with kcna7_human KCNA7, Q96RP8

effect of a mutation on the interaction	Variant
decreasing interaction strength	K49E;R56E;V178D

Variants of: B1
Conditions: with shkb1_human SHKBP1, Q8TBC3

effect of a mutation on the interaction	Variant
decreasing interaction strength	K49E;R56E;V178D

Variants of: B1
Conditions: with abtb2_human ABTB2, Q8N961

effect of a mutation on the interaction	Variant
decreasing interaction strength	K49E;R56E;V178D

Variants of: B1
Conditions: with ned4l_human NEDD4L

effect of a mutation on the interaction	Variant
decreasing interaction strength	K49E;R56E;V178D

Variants of: B1
Conditions: with sh3r1_human SH3RF1, Q7Z6J0
Chain of sh3r1_human SH3RF1, Q7Z6J0 (Q7Z6J0 whole entry): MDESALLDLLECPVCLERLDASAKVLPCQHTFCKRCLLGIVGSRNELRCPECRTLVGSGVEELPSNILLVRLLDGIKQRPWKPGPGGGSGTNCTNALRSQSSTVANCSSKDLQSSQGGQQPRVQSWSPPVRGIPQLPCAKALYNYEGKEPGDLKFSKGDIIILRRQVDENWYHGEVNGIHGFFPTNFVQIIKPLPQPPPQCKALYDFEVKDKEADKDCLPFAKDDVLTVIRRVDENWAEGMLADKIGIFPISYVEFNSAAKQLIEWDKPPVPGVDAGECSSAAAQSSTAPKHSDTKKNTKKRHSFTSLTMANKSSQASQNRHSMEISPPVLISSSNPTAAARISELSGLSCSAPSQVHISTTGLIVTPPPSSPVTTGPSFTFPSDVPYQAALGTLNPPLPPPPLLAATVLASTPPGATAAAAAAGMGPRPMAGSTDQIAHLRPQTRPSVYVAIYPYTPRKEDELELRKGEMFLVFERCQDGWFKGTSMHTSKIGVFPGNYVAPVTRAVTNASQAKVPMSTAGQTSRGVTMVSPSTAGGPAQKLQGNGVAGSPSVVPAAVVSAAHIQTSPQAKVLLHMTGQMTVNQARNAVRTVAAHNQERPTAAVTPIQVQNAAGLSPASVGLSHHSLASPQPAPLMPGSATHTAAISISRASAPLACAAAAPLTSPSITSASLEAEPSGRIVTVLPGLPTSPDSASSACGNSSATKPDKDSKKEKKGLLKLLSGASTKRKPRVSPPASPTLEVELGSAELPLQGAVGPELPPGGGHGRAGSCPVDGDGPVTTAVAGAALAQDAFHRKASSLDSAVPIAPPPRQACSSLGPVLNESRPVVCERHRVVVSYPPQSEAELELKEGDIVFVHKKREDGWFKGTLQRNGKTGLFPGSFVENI

effect of a mutation on the interaction	Variant
decreasing interaction strength	K49E;R56E;V178D

Variants of: B1
Conditions: with braf_human BRAF

effect of a mutation on the interaction	Variant
decreasing interaction strength	K49E;R56E;V178D

Variants of: B1
Conditions: with FAM110B

effect of a mutation on the interaction	Variant
decreasing interaction strength	K49E;R56E;V178D

Variants of: B1
Conditions: with iscu_human ISCU

effect of a mutation on the interaction	Variant
decreasing interaction strength	K49E;R56E;V178D

Variants of: B1
Conditions: with foxo4_human FOXO4, P98177

effect of a mutation on the interaction	Variant
decreasing interaction strength	K49E;R56E;V178D

Variants of: B1
Conditions: with klc4_human KLC4, Q9NSK0
Chain of klc4_human KLC4, Q9NSK0 (Q9NSK0 whole entry): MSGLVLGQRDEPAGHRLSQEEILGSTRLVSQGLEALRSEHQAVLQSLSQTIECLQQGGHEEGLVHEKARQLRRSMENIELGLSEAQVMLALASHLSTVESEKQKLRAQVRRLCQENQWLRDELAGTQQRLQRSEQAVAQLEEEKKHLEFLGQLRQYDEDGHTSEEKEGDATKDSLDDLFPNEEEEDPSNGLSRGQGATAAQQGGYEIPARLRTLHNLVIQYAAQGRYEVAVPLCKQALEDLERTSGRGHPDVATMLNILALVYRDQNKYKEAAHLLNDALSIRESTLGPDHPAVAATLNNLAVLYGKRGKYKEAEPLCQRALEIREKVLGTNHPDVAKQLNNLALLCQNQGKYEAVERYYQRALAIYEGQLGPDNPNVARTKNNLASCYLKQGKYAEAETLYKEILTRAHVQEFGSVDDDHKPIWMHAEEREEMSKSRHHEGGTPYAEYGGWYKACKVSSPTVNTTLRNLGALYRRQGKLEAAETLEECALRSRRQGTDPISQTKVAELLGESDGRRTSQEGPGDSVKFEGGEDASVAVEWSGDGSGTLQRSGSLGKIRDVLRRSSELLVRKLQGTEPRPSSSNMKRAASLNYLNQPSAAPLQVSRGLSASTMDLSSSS

effect of a mutation on the interaction	Variant
decreasing interaction strength	K49E;R56E;V178D

Variants of: B1
Conditions: with larp1_human LARP1, Q6PKG0

effect of a mutation on the interaction	Variant
decreasing interaction strength	K49E;R56E;V178D

Variants of: B1
Conditions: with klc3_human KLC3, Q6P597

effect of a mutation on the interaction	Variant
decreasing interaction strength	K49E;R56E;V178D

Variants of: B1
Conditions: with dnjb1_human DNAJB1, P25685
Chain of dnjb1_human DNAJB1, P25685 (P25685 whole entry): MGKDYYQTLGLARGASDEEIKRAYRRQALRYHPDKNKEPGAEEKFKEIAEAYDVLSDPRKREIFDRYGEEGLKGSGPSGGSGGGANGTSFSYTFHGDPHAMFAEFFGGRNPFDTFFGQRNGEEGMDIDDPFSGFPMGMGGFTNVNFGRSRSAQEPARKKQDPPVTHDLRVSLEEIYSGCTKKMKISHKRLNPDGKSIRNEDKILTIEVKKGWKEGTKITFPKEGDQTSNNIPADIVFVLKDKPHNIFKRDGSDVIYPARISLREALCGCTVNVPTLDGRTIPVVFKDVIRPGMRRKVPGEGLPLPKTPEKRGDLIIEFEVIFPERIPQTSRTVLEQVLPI

effect of a mutation on the interaction	Variant
decreasing interaction strength	K49E;R56E;V178D

Variants of: B1
Conditions: with wee1_human WEE1, P30291

effect of a mutation on the interaction	Variant
decreasing interaction strength	K49E;R56E;V178D

Variants of: B1
Conditions: with grip1_human GRIP1, Q9Y3R0

effect of a mutation on the interaction	Variant
decreasing interaction strength	K49E;R56E;V178D

Variants of: B1
Conditions: with KIAA0930, Q6ICG6

effect of a mutation on the interaction	Variant
decreasing interaction strength	K49E;R56E;V178D

Variants of: B1
Conditions: with ablm1_human ABLIM1, O14639

effect of a mutation on the interaction	Variant
decreasing interaction strength	K49E;R56E;V178D

Variants of: B1
Conditions: with baip2_human BAIAP2, Q9UQB8

effect of a mutation on the interaction	Variant
decreasing interaction strength	K49E;R56E;V178D

Variants of: B1
Conditions: with nav1_human NAV1, Q8NEY1

effect of a mutation on the interaction	Variant
decreasing interaction strength	K49E;R56E;V178D

Variants of: B1
Conditions: with pcm1_human PCM1, Q15154
Chain of pcm1_human PCM1, Q15154 (Q15154 whole entry): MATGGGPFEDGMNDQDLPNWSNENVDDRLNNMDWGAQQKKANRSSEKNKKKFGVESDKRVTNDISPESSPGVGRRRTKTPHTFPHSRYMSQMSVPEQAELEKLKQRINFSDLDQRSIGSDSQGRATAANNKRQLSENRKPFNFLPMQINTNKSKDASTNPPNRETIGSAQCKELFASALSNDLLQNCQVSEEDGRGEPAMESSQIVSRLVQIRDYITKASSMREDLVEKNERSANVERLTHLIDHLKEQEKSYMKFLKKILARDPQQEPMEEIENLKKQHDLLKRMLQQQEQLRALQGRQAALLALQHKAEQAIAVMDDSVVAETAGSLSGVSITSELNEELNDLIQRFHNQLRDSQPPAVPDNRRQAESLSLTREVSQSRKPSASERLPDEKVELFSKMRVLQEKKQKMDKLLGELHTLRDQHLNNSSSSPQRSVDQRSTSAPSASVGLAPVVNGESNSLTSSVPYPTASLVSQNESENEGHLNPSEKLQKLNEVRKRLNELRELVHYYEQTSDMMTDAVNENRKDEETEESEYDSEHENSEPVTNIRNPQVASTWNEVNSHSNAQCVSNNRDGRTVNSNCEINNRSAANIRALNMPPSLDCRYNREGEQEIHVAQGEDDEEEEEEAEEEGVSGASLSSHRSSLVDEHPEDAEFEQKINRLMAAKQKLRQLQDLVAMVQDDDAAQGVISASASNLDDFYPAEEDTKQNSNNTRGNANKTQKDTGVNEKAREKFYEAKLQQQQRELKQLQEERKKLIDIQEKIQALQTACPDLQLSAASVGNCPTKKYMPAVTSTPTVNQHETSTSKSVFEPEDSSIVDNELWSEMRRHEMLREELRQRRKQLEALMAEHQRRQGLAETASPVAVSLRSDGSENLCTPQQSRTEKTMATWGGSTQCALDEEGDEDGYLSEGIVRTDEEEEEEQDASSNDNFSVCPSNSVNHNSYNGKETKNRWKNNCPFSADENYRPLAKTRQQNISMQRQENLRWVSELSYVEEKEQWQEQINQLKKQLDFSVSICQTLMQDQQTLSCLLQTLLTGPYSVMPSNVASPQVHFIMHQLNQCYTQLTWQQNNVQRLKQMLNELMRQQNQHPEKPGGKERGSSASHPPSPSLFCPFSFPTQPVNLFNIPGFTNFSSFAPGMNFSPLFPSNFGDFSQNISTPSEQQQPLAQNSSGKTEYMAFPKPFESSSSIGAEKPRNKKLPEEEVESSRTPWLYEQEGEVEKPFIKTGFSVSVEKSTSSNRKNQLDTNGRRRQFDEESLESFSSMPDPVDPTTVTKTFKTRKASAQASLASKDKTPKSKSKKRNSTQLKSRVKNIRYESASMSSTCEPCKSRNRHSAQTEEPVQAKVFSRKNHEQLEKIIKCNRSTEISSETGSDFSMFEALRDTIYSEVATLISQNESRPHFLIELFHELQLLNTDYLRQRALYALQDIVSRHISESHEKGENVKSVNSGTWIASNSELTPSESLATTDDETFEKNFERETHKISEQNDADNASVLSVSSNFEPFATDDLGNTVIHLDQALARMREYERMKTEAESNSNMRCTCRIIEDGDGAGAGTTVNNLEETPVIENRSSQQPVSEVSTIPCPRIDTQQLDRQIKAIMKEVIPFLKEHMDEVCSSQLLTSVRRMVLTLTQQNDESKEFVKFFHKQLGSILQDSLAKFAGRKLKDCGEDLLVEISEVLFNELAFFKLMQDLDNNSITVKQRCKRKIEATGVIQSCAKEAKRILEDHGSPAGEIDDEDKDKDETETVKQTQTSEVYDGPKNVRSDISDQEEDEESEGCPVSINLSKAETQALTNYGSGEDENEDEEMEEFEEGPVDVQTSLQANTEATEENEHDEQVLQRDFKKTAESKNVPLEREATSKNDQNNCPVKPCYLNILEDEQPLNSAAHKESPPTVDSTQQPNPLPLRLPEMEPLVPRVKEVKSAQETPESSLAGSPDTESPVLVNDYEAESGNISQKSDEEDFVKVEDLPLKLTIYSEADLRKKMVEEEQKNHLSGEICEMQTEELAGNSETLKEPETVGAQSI

effect of a mutation on the interaction	Variant
decreasing interaction strength	K49E;R56E;V178D

Variants of: B1
Conditions: with EPB41L2, O43491

effect of a mutation on the interaction	Variant
decreasing interaction strength	K49E;R56E;V178D

Variants of: B1
Conditions: with kif1b_human KIF1B

effect of a mutation on the interaction	Variant
decreasing interaction strength	K49E;R56E;V178D

Variants of: B1
Conditions: with clap1_human CLASP1, Q7Z460

effect of a mutation on the interaction	Variant
decreasing interaction strength	K49E;R56E;V178D

Variants of: B1
Conditions: with pum1_human PUM1, Q14671

effect of a mutation on the interaction	Variant
decreasing interaction strength	K49E;R56E;V178D

Variants of: B1
Conditions: with klc2_human KLC2, Q9H0B6

effect of a mutation on the interaction	Variant
decreasing interaction strength	K49E;R56E;V178D

Variants of: B1
Conditions: with foxo1_human FOXO1, Q12778

effect of a mutation on the interaction	Variant
decreasing interaction strength	K49E;R56E;V178D

Variants of: B1
Conditions: with irs1_human IRS1, P35568

effect of a mutation on the interaction	Variant
decreasing interaction strength	K49E;R56E;V178D

Variants of: B1
Conditions: with atat_human ATAT1, Q5SQI0

effect of a mutation on the interaction	Variant
decreasing interaction strength	K49E;R56E;V178D

Variants of: B1
Conditions: with 1433e_human YWHAE

effect of a mutation on the interaction	Variant
decreasing interaction strength	K49E;R56E;V178D
